B1: Azoarcus group I ribozyme (parent)
chain: GUGCCUUGCGCCGGGAAACCACGCAAGGGAUGGUGUCAAAUUCGGCGAAACCUAAGCGCCCGCCCGGGCGUAUGGCAACGCCGAGCCAAGCUUCGGCGCCUGCGCCGAUGAAGGUGUAGAGACUAGACGGCACCCACCUAAGGCAAACGCUAUGGUGAAGGCAUAGUCCAGGGAGUGGCGAAAGUCACACAAACCGG

Variants of: B1
Experiment: reverse-splicing fitness (ratio to wild type); higher = more active; in vitro selection; Mg2+ level not given
Method in brief: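 An in vitro group I ribozyme library with randomized positions was T7-transcribed and gel-purified. In triplicate, 10 pmol RNA in EPPS pH 7.5 was reacted with 50 pmoles of a 30-nt RNA substrate for 1 h at 37 °C across several added MgCl2 levels (1–48 mM), then stopped with EDTA. Products were reverse transcribed from a substrate-complementary primer, PCR-amplified and sequenced (HiSeq 4000). Fitness is a variant's read proportion after selection over that before, normalised to wild type.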

Variant | reverse-splicing fitness
C82U A111U A120C A145G C150U C169U U176G | 0.00474
C82U A111U A120C A145G C150U C169U U176C | 0.0155
C82U A111U A120G A145C C150G | 0.00668
C82U A111U A120G A145C C150U | 0.0086
C82U A111U A120G A145C C150A | 0.0064
C82U A111U A120G A145G C150U C169U U176C | 0.014
C82U A111U A120G A145G C150U C169U U176A | 0.0194
C82U A111U A120G A145G C150U C169U U176G | 0.00481
C82U A111U A120G A145U C150G C169U U176C | 0.0111
C82U A111U A120G A145U C150G C169U U176G | 0.00463
C82U A111U A120G A145U C150G C169U U176A | 0.0116
C82U A111U A120G A145G C150A U176G | 0.00603
C82U A111U A120G A145G C150A U176C | 0.0166
C82U A111U A120G A145G C150A U176A | 0.0093
C82U A111U A120C A145G C169U U176C | 0.0162
C82U A111U A120C A145G C169U U176G | 0.00475
C82U A111U A120C A145G C169U U176A | 0.0163
C82U A111U A120G A145G C150A C169U U176A | 0.0205
C82U A111U A120G A145G C150A C169U U176C | 0.0157
C82U A111U A120G A145G C150A C169U U176G | 0.00536
C82U A111U A120C A145U C150G C169U | 0.00819

Variant | reverse-splicing fitness
C82U A111U A120C A145U C150G C169G | 0.00651
C82U A111U A120C A145U C150G C169A | 0.00868
C82U A111U A120C C150U C169U U176A | 0.0177
C82U A111U A120C C150U C169U U176G | 0.00524
C82U A111U A120C C150U C169U U176C | 0.0157
C82U A111U A120G A145C C150U U176A | 0.00859
C82U A111U A120G A145C C150U U176C | 0.00906
C82U A111U A120G A145C C150U U176G | 0.00412
C82U A111U A120G | 0.0168
C82U A111U A120G A145C C150U C169A | 0.00726
C82U A111U A120G A145C C150U C169U | 0.00734
C82U A111U A120G A145C C150U C169G | 0.00792
C82U A111U A120G A145C C169U U176C | 0.0108
C82U A111U A120G A145C C169U U176A | 0.0194
C82U A111U A120G A145C C169U U176G | 0.00376
C82U A111U A120G A145G C150U C169A U176C | 0.0123
C82U A111U A120G A145G C150U C169A U176A | 0.0135
C82U A111U A120G A145G C150U C169A U176G | 0.00525
C82U A111U A120G A145G C150A C169A U176A | 0.0153
C82U A111U A120G A145G C150A C169A U176C | 0.02
C82U A111U A120G A145G C150A C169A U176G | 0.00564

Variant | reverse-splicing fitness
C82U A111U A120C C150A C169G | 0.0083
C82U A111U A120C C150A C169U | 0.0114
C82U A111U A120C C150A C169A | 0.00966
C82U A111U A120C C150U U176C | 0.0158
C82U A111U A120C C150U U176G | 0.00696
C82U A111U A120C C150U U176A | 0.011
C82U A111U A120G A145G C150G C169U U176C | 0.0112
C82U A111U A120G A145G C150G C169U U176G | 0.00647
C82U A111U A120G A145G C150G C169U U176A | 0.012
C82U A111U A120G A145G C150U C169G | 0.00964
C82U A111U A120G A145G C150U C169A | 0.00995
C82U A111U A120G A145G C150U C169U | 0.0104
C82U A111U A120G A145G C150G U176C | 0.00919
C82U A111U A120G A145G C150G U176A | 0.0062
C82U A111U A120G A145G C150G U176G | 0.00543
C82U A111U A120G A145G C150G C169G U176G | 0.00498
C82U A111U A120G A145G C150G C169G U176A | 0.00842
C82U A111U A120G A145G C150G C169G U176C | 0.0107
C82U A111U A120C C169U U176G | 0.00459
C82U A111U A120C C169U U176A | 0.0196
C82U A111U A120C C169U U176C | 0.0164

Variant | reverse-splicing fitness
C82U A111U A120G A145C C150G C169G U176C | 0.0069
C82U A111U A120G A145C C150G C169G U176G | 0.00424
C82U A111U A120G A145C C150G C169G U176A | 0.00849
C82U A111U A120C C169A U176C | 0.0138
C82U A111U A120C C169A U176G | 0.00513
C82U A111U A120C C169A U176A | 0.0152
C82U A111U A120C A145U C150A U176G | 0.0048
C82U A111U A120C A145U C150A U176A | 0.0115
C82U A111U A120C A145U C150A U176C | 0.00963
C82U A111U A120C A145U | 0.0286
C82U A111U A120C C150G U176A | 0.00451
C82U A111U A120C C150G U176C | 0.00725
C82U A111U A120C C150G U176G | 0.00352
C82U A111U A120C A145U C169A U176G | 0.00442
C82U A111U A120C A145U C169A U176C | 0.00749
C82U A111U A120C A145U C169A U176A | 0.00849
C82U A111U A120G A145G C150U U176A | 0.00911
C82U A111U A120G A145G C150U U176G | 0.00569
C82U A111U A120G A145G C150U U176C | 0.0171
C82U A111U A120C A145G C150U | 0.0229
